# Data reported in the DeepSol protein solubility set.
# Assay: soluble on expression in E. coli; label from the status in PepcDB or PDB records
row,Sequence,soluble on expression in E. coli
1,MGSDKIHHHHHHYQPEKHAVVKSDRGDGRLLSTYAIVHEMLKDTHPQYAYRSGMSAQEFTQWQDGVRAAMVEIMKFPEIKRQPSPVCVKTEKKEGYILEKWEFYPFPKSVSTFLVLKPEHLKGAVPGVLCIPGSGRTKEGLVGEPGICDKLTEDYNNPKVSMALNMVKEGYVAVAVDNAAAGEASDLECYDKGWNYDYDVVSRFLLELGWSWLGYTSYLDMQVLNWMKAQSYIRKDRIVISGFSLGTEPMMVLGVLDKDIYAFVYNDFLCQTQERAVVMTKPDKENRRPFPNSIRHLIPGYWRYFNFPDVVASLAPRPIIFTEGGLDRDFRLVQSAYAASGKPENAEFHHYPKFADKAVRKDVEHLDEGLDSKTYFEAVNVDPPSHYFKNELVIPWLRKVLK,not soluble
2,EELEYKGMNTLQISNVDDLISFYQYADDRIPLISGHRGGRGKGYPENSMETFENTLSYTPATFEIDPRLTKDSVIVLFHDDTLERTSNGTGKVSDYTWEELQNFRLKDPEGNITNYRIPTLEEAIRWARGKTILILDKKDVPMERTAQLITDMQAEPYVMITVHDGASARFFYEKNPNFMFEAFVKTKEAVQDYEDNGIPWSHIMAYVGPKITPEVREVIDMLHERGVMCMISTAPSDDKLSTPESRAEAYRMIIRQGVDIIESDRPIEVAEAISSLIPVSSSKGKFFSTL,soluble
3,MIDVLLGADDGSLAFVPSEFSCSPGCKIVFKNNAGFPHNIVFDEDSIPSGVDASKISMSEEDLLNAKGETFEVALSNKGEYSFYCSPHQGAGMVGKVTVN,soluble
4,SLVKGESGHQAVSGIAIQRDLAIIEVDKEHLSSATKQCQMLGIDIWNVIEETERTGIMIKQEACAKFDLVFSDKIRNSEAVSLLTAVGLEANGMVEHACGLLAQQDIAINFCATNALTMMLVLPPESVDTAANILHDAYITSSEALNIQQKHAFLG,not soluble
5,MSLIESVMTVLVTRPDEQGAELCQLLHQQGIPALHHPLLAISASPQLAALAEDLSSFDIIIAVSQHAVIFSDQFLQHRRICWPNNAIYLAVGQKTAHVFSKACQQSVDYPEISDSEHLLALSMLRDVAGKKVLILRGNGGRELIYSTLVERGATVRYQEAYCRHERPFAAAECVQKWQLAKVDSLVITSSEQLAFFIRQFETSHLPWVQQLTLLVPSQRIATLAHQLGFHRIVVTLSAANRDLVAALMPEKPTGTLSNDQQQEGHHHHHH,soluble
6,MGSDKIHHHHHHMLNMDLSQRVVINTADLEWQNSPAAGVLRKRLAREEAERGHATSIVKYQAGAKFNSHPHPLGEEILVLDGVFSDETGDYPAGTYLRNPEGFVHAPFSVQGCTLLVKLHQFQTTDSQQVAINTNETQWLPGHGQLQVMPLHQHGTESTALVKWPAGTHFQPHRHFGGEEIYVISGVFIDELGRYPAGTWIRSPHLSQHNPYVEQDTVILVKVGHL,not soluble
7,MGSSHHHHHHSSGLVPRGSHMSLKHFLNTQDWSRAELDALLTQAALFKRNKLGSELKGKSIALVFFNPSMRTRTSFELGAFQLGGHAVVLQPGKDAWPIEFNLGTVMDGDTVEHIAEVARVLGRYVDLIGVRAFPKFVDWSKDREDQVLKSFAKYSPVPVINMETITHPCQELAHALALQEHFGTPDLRGKKYVLTWTYHPKPLNTAVANSALTIATRMGMDVTLLCPTPDYILDERYMDWAAQNVAESGGSLQVSHDIDSAYAGADVVYAKSWGALPFFGNWEPEKPIRDQYQHFIVDERKMALTNNGVFSHCLPLRRNVKATDAVMDSPNCIAIDEAENRLHVQKAIMAALVGQSRP,soluble
8,MGSDKIHHHHHHEPTKLTPENYFNTPAEANSFLTGIYAILSQPTFYGGDYMYLVAGDDLSHYGGSGRGPASTGLICNNATTSDNAVTAFWYALYSGINRANMFLENIDKVNGFDAGVKEQYIAEARFLRAFYYFNLVECWGDVPFKTVSTQSVTNLNIPRTDKQEIYDFIISEMADAAETGLKSASDLAYKPGRISQSTAWGILARVYLFRAGEHYREGRNATQAEKKDYFERASFYAQKVMTAGHKLAANYWDPFIDMCSDKYNTTANESIWEAEFAGNNTSDTQAEGRIGNIIGLAGPDLSSKSDVTGAKDPGYGYAFIYSTPKLYNLYVNNGDTKRFNWSIAPFEYKEAGGKNTGVTHREFEQGKLAEVMSQYGQQRGTYQYADDTEKTTATKNFSRMCGKYRREYEADKKDKNYTSINFPILRYADVLLMIAEAENEANNGPTTLAYQCMKEVRERAGLNELPDMTQEEFRQTVKDERAMELCFEYTRRFDLIRWGEYVKNMRALVTEAQSGNNWTQGPTNVYTYFNISSTYNYFPIPDAEMSVNKDITQNNPGW,not soluble
9,MKIAIGSDHAGFPLKEKIKEFLKGEGHKVIDVGTHAQESTHYPIYAKEVVRAIRSGKAERGILICGTGIGMSITANKFRGIRAALCTNEYMARMSRLHNDANVLCLGERVLGVELALSIVKVWLETPFEGGRHLKRLEIISEIEDEICGENIPR,soluble
10,MASETENIKYEESFIKNTRGMKLFTCKWVPAKQEPKALVFICHGYAMECSITMNSTARRLVKAGFAVYGIDYEGHGKSDGLSAYVPNFDHLVDDVSTHYTSICEKEENKGKMRFLLGESMGGAVLLLLHRKKPQFWDGAVLVAPMCKIAEEMKPSPLVISILAKLSGVIPSWKIIPGQDIIETAFKQPEIRKQVRENPYCYKGRPRLKTAYELLRVSTDLEKRLNEVSLPFIVLHGEDDKVTDKAVSRQLYEVASSSDKTFKLYPGMWHGLLYGETPENIETVFADIIGWLDKKVADESGGFESELKRKNDGIPLKG,soluble
11,MNLDLQKVLPAEAFETEQNEGDYIGKDGLLYCGVCRTKKQTRLPASDFTGGREIIVPCICKCKVEENKRKEEEEKKRQEMQRLERLKASSLMDAKLKAARLDGYQVDGDNQKIYNLAGNYVKRFDEMYEKRQGLLFWGTVGTGKSYTAACIANELLNQMIPVVMTSFVKILQNIQGNPDEEERIMAGLNAAKLLIIDDLGAERSTDYALEKVYNIIDSRYLSGKPLILTTNMTLKDMQESEDIRYRRIYDRIFEMCFPVRFAGRSWREKAASKRFDAMKNLMEE,not soluble
12,MGSDKIHHHHHHMTTTKKTGERLIKKYPNRRLYDTETSTYITLTDVKQLVLEQEDFKVIDAKSSEDLTRSILLQIILEEESGGVPMFSSSMLSQIIRFYGHAMQGMMGTYLEKNIQAFIDIQSKLADQSKNLYENNAMNPEVWSQFMNMQAPMMQGMMTSYIEQSKNMFVQMQEQMQNQAKTMFSSFPFKPATPPGSEPEKK,not soluble
13,MTFYYQRLAQQIAHKIYQQQLLPQQKLSSLRDFATQHQVSISTAKSCYEWLEAQGLIYVKPKSGYFVKPKSNVSRLPVSPEFESMPRQVSNLMLQNQIQEASIQNHLIPFGAIQLSPELVPIDGLRRSIQRALKYCKPEDFLYCEKQGHLRLRQALSEHWREDGIYVAPNDIFITNGCMPALSLLIQQLSREGDSILIPTPTFNGQLQLLAGLNRHIIEIPADHTGIDLLRLEQAMQMHQPKLCLLTANYQNPLGYCLADEDKQKIAQLAARYQCIILEDDIYAECSHHGQRPRPIKYWDEAGYVIWVSSVSKSLSSAYRVGWFCIGSQLEPMRPRFLSHNMTVNTPLQLALADFIFSRGYRRHLNQLHPRLMQQVEAYRDVILNAFAPLTIGLSQPQGGYALWLELPDNINSVTLYEVAQQQGISIVPGTVFGEDQRYGHFIRLSVGHALQNEHHAAIIFLADWVKQHC,not soluble
14,MGSSHHHHHHSSGLVPRGSHMETLCQRLNVCQDKILTHYENDSTDLRDHIDYWKHMRLECAIYYKAREMGFKHINHQVVPTLAVSKNKALQAIELQLTLETIYNSQYSNEKWTLQDVSLEVYLTAPTGCIKKHGYTVEVQFDGDICNTMHYTNWTHIYICEEASVTVVEGQVDYYGLYYVHEGIRTYFVQFKDDAEKYSKNKVWEVHAGGQVILCPTSVFS,soluble
15,AHHHHHHGSKVEKYAIIFGKNPELGLYELKAFSKRFKLGVRILEIRFYGPNKSFAIIQAKEEIEKKFKWLGGALKLVRIVGEGLDTIENLEYSKLFTVSLYGKEDWKAWRKLGSQVKAVFKRKDSSKFFKPANVYSMPSELILKGFPEVKDVVFLFVDKDRVLVGETIRITNPFELKKLDVERPIVRPTLSIPPRLARIMINLSEVRKGNVLDPFCGTGTILVELLLQGLIAYGSDISQERINDARKNIEWIRKEFRIKQNASLRVCDVRRLKKCFRTRFDAIITEPYMGRPLKTKPTREEAIKIAKQLDRLYYQAFESFSDVLKRNAKVVFVFPAFNLAEGGVYRRNRPWLEELGFKVEYSILDIDEKHRIGRDIYVIRY,soluble
16,MFYDLAIGIYDLLVHLAAPFSRKPRKMMKGHWVVYDLLRQQVEKDERYIWFHAASLGEFEQGRPLIESIRERYPDYKILQTFFSPSGYEVRKNYRGADIVCYLPFDKPRNVKKFLDIVNPCMAFFIKYEFWKNYLDELHKRRIPVYSVSSIFRKDQIFFKWYGGTYRNVLKDFDHLFVQNEASKRFLAKIGITRVTVVGDTRFDRVLQIREQAKELPLVEQFKNGAFTFVAGSSWGPDEDLFIEYFNSHPEMKLIIAPHVIDENHLVEIIGKLKRPSVRYTRADEKNVRKADCLIIDCFGLLSSIYRYGEIAYIGGGFGVGIHNTLEAAVYGIPVIFGPKYQKFMEAMQLIEAGGAYSIKDYNELKTLLDRLLTDEAFLRKTGTNAGNYVIGNSGATEKVLHMINFLEHHHHHH,not soluble
17,MPPKVTSELLRQLRQAMRNSEYVTEPIQAYIIPSGDAHQSEYIAPCDCRRAFVSGFDGSAGTAIITEEHAAMWTDGRYFLQAAKQMDSNWTLMKMGLKDTPTQEDWLVSVLPEGSRVGVDPLIIPTDYWKKMAKVLRSAGHHLIPVKENLVDKIWTDRPERPCKPLLTLGLDYTGISWKDKVADLRLKMAERNVMWFVVTALDEIAWLFNLRGSDVEHNPVFFSYAIIGLETIMLFIDGDRIDAPSVKEHLLLDLGLEAEYRIQVHPYKSILSELKALCADLSPREKVWVSDKASYAVSETIPKDHRCCMPYTPICIAKAVKNSAESEGMRRAHIKDAVALCELFNWLEKEVPKGGVTEISAADKAEEFRRQQADFVDLSFPTISSTGPTGAIIHYAPVPETNRTLSLDEVYLIDSGAQYKDGTTDVTRTMHFETPTAYEKECFTYVLKGHIAVSAAVFPTGTKGHLLDSFARSALWDSGLDYLHGTGHGVGSFLNVHEGPCGISYKTFSDEPLEAGMIVTDEPGYYEDGAFGIRIENVVLVVPVKTKYNFNNRGSLTLEPLTLVPIQTKMIDVDSLTDKECDWLNNYHLTCRDVIGKELQKQGRQEALEWLIRETQPISKQH,soluble
18,MSLEKTKLPWDEFFSLNKDINHTYFTPEDFSGDEDLIAKTTEQFVKQEIVPQMENIEQHNYKVSRQLFEKAGELGLLGIEVPEDYGGFELGKAVSGLVAEKMGYAGAFSVSFNIHAGVGTLPYIYYGTKEQKEKYLPKIASGEWIGAYALTEPNAGSDALSAKTSAVLNEEGTAWKLNGEKQWITNAHMADVYVVFAKTNKGMTAFIVERTCEGVSIGLEEKKMGIKGSSTATLILEDVVIPAENVLGEVGKGHHVALNILNFARLKLAFGNIGTAKQAIGLSVQYGKERKQFQTELVDFTMIQEKIANMIIATYGAESAAYRTAGVIDEAIHESDEDLMKKMSQFAIECALNKVNASETLAYIVDEAVQIHGGYGYMQEYEVERLYRDARISRIFEGTNEINRLTVAKMLMKQIEQLEEGHHHHHH,not soluble
19,VQLLEQSGAELVKPGASVKLSCTASGFNIEDSYIHWVKQRPEQGLEWIGRIDPEDGETKYAPKFQGKATITADTSSNTAYLHLRRLTSEDTAIYYCGRGAYYIKEDFWGQGTTLTVSSASTKGPSVFPLAPSSKAGGTAALGCLVKDYFPEPVTVSWNSGALTSGVHTFPAVLQSSGLYSLSSVVTVPSSSLGTQTYICNVNHKPSNTKVDKKVEPA,soluble
